Substitutions are numbered along the chain they refer to.
Columns and labels:
Assay in all cases: ITC; ITC: 20 mM HEPES-Na pH 7.5, 200 mM NaCl, 20 mM KCl, 25 C, 20 uM DNA in cell, protein in syringe, one set of sites; EMSA: same buffer plus 50 ug/ml herring sperm DNA, 50 nM DNA, RT 15 min, 6% native PAGE 0.5x TBE
Conditions in all cases: protein: recombinant; tags: C-terminal His6; blunt
[1] = target: T1, MrpR G136E (Bacillus subtilis prophage SPβ c2, UniProt O34558 1-325, G136E)
T1 sequence: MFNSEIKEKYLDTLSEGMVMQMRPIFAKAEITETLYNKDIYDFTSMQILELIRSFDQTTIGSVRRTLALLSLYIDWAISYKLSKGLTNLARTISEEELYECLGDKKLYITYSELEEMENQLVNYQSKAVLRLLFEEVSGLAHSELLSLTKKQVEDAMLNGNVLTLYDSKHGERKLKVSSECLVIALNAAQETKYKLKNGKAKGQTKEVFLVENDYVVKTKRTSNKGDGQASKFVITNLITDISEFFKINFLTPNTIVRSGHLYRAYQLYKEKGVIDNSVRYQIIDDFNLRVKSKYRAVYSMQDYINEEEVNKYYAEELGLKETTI

[2] = target: T2, MrpR Y304F (Bacillus subtilis prophage SPβ, UniProt O34558 1-325, Y304F)
T2 sequence: T1 sequence with E136G, Y304F

[3] = target: T3, MrpR K169A (Bacillus subtilis prophage SPβ, UniProt O34558 1-325, K169A)
T3 sequence: T1 sequence with E136G, K169A

B1: aimR promoter ITC duplex (LC292/LC293) (dsDNA)
DNA 1: GAATTTTAAAGAGATTACAAATACAAAAAATATGTATAAAATAATTGACTCGTAATG
DNA 2: CATTACGAGTCAATTATTTTATACATATTTTTTGTATTTGTAATCTCTTTAAAATTC
Kd [1]: 1690 ± 690 nM | Kd [2]: 1340 ± 500 nM | Kd [3]: 346 ± 150 nM

Source: PMC10516654, “Structural and functional characterization of MrpR, the master repressor of the Bacillus subtilis prophage SPβ”
